Reference: paper PMC7463755, “C7-Prenylation of Tryptophan-Containing Cyclic Dipeptides by 7-Dimethylallyl Tryptophan Synthase Significantly Increases the Anticancer and Antimicrobial Activities” (Molecules, 2020)

Assays:
Test in all cases: HPLC product formation, Michaelis-Menten
Type in all cases: biochemical, Aspergillus fumigatus
[1] = substrate: CC(C)=CCOP(=O)(O)OP(=O)(O)O; conditions: 1 mM 1a (cyclo-L-Trp-Gly), 5 mM CaCl2, 37 °C, prenyl donor
Excerpt: (§1) HPLC product formation, Michaelis-Menten on 7-DMATS (7-dimethylallyl tryptophan synthase)

[2] = substrate: CC(C)C[C@@H]1NC(=O)[C@H](Cc2c[nH]c3ccccc23)NC1=O; conditions: 2 mM DMAPP, 5 mM CaCl2, 37 °C, prenyl acceptor
Excerpt: as §1

[3] = substrate: C[C@@H]1NC(=O)[C@H](Cc2c[nH]c3ccccc23)NC1=O; conditions: 2 mM DMAPP, 5 mM CaCl2, 37 °C, prenyl acceptor
Excerpt: as §1

[4] = substrate: O=C1CNC(=O)[C@H](Cc2c[nH]c3ccccc23)N1; conditions: 2 mM DMAPP, 5 mM CaCl2, 37 °C, prenyl acceptor
Excerpt: as §1

[5] = substrate: O=C1N[C@@H](Cc2c[nH]c3ccccc23)C(=O)N[C@H]1Cc1c[nH]c2ccccc12; conditions: 2 mM DMAPP, 5 mM CaCl2, 37 °C, prenyl acceptor
Excerpt: as §1

[6] = substrate: O=C1N[C@@H](Cc2c[nH]c3ccccc23)C(=O)N[C@H]1Cc1ccc(O)cc1; conditions: 2 mM DMAPP, 5 mM CaCl2, 37 °C, prenyl acceptor
Excerpt: as §1

[7] = substrate: O=C1N[C@@H](Cc2c[nH]c3ccccc23)C(=O)N[C@H]1Cc1ccccc1; conditions: 2 mM DMAPP, 5 mM CaCl2, 37 °C, prenyl acceptor
Excerpt: as §1

[8] = substrate: [H][C@@]12CCCN1C(=O)[C@H](Cc1c[nH]c3ccccc13)NC2=O; conditions: 2 mM DMAPP, 5 mM CaCl2, 37 °C, prenyl acceptor
Excerpt: as §1

B1: 7-DMATS (7-dimethylallyl tryptophan synthase) (Aspergillus fumigatus Af293) (protein)
chain: MSIGAEIDSLVPAPPGLNGTAAGYPAKTQKELSNGDFDAHDGLSLAQLTPYDVLTAALPLPAPASSTGFWWRETGPVMSKLLAKANYPLYTHYKYLMLYHTHILPLLGPRPPLENSTHPSPSNAPWRSFLTDDFTPLEPSWNVNGNSEAQSTIRLGIEPIGFEAGAAADPFNQAAVTQFMHSYEATEVGATLTLFEHFRNDMFVGPETYAALRAKIPEGEHTTQSFLAFDLDAGRVTTKAYFFPILMSLKTGQSTTKVVSDSILHLALKSEVWGVQTIAAMSVMEAWIGSYGGAAKTEMISVDCVNEADSRIKIYVRMPHTSLRKVKEAYCLGGRLTDENTKEGLKLLDELWRTVFGIDDEDAELPQNSHRTAGTIFNFELRPGKWFPEPKVYLPVRHYCESDMQIASRLQTFFGRLGWHNMEKDYCKHLEDLFPHHPLSSSTGTHTFLSFSYKKQKGVYMTMYYNLRVYST
notes: recombinant, overproduced in E. coli and purified as in Kremer et al; vector pQE60 named
Work on B1 yielded a Km [1] of 79.6 µM, a Vmax [1] of 0.072 µM/min and a kcat [1] of 0.0693 s⁻¹. It also gave a kcat/Km [1] of 871 M⁻¹ s⁻¹, a Km [2] of 823.2 µM and a Vmax [2] of 0.0654 µM/min. It also gave a kcat [2] of 0.0586 s⁻¹, a kcat/Km [2] of 71.2 M⁻¹ s⁻¹ and a Km [3] of 867.8 µM. The Vmax [3] was 0.0141 µM/min, the kcat [3] was 0.0127 s⁻¹ and the kcat/Km [3] was 14.6 M⁻¹ s⁻¹. The Km [4] was 169.7 µM, the Vmax [4] was 0.145 µM/min and the kcat [4] was 0.131 s⁻¹. For the same protein, the kcat/Km [4] was 770 M⁻¹ s⁻¹, the Km [5] was 225.8 µM and the Vmax [5] was 0.0459 µM/min. For the same protein, the kcat [5] was 0.0413 s⁻¹, the kcat/Km [5] was 183 M⁻¹ s⁻¹ and the Km [6] was 562.4 µM. For the same protein, the Vmax [6] was 0.0515 µM/min, the kcat [6] was 0.0464 s⁻¹ and the kcat/Km [6] was 82.4 M⁻¹ s⁻¹. For the same protein, the Km [7] was 102.9 µM, the Vmax [7] was 0.0359 µM/min and the kcat [7] was 0.0323 s⁻¹. For the same protein, the kcat/Km [7] was 314 M⁻¹ s⁻¹, the Km [8] was 880.1 µM and the Vmax [8] was 0.0228 µM/min. It also gave a kcat [8] of 0.0205 s⁻¹ and a kcat/Km [8] of 23.3 M⁻¹ s⁻¹.
